25 molecules from patent EP4696707A1 can be followed below.

The target in this experiment is ATP5B protein (UniProt P06576). The experiment is described as follows: SPR, ATP5B amine-coupled to CM5 chip, peptide in flow at 50 µl/min; binding relative to SEQ ID NO: 12. In general terms: In SPR one partner is held on a chip, and binding of the other changes the refractive index at the surface.
Sequence of ATP5B protein (P06576 48-529 limits assumed): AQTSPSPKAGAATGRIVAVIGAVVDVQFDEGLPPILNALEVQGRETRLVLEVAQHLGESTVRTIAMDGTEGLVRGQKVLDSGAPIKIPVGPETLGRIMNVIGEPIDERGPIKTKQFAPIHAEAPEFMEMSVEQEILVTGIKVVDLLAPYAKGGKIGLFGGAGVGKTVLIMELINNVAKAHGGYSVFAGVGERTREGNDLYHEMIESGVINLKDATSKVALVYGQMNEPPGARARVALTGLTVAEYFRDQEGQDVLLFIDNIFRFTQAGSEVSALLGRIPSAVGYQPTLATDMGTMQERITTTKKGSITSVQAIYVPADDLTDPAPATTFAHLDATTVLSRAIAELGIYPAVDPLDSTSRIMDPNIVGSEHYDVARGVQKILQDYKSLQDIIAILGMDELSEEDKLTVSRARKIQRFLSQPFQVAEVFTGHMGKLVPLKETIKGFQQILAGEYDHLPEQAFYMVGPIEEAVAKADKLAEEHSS
VDRGAGSIREAGGAFGKREQAEAERYFR [Shortened substance (8-35) amino acid Ala substituted (30)] yielded a Binding (%) of 94%. With VDRGAGSIREAGGAFGKREQAEEERYFR [Shortened substance (8-35)] the figure was 100%; with VDRGAGSIREAGGAAGKREQAEEERYFR [Shortened substance (8-35) amino acid Ala substituted (22)], 94%. The value for VDRGAGSIREAGGAFGKREQAEEERYFA [Shortened substance (8-35) amino acid Ala substituted (35)] was 110%. VDRGAGSIREAGGAFGKAEQAEEERYFR [Shortened substance (8-35) amino acid Ala substituted (25)] registered a Binding (%) of 85.2%. The molecule VDAGAGSIREAGGAFGKREQAEEERYFR [Shortened substance (8-35) amino acid Ala substituted (10)] gave a Binding (%) of 104%. The value for VDRGAGSIAEAGGAFGKREQAEEERYFR [Shortened substance (8-35) amino acid Ala substituted (16)] was 97%; that for VDRGAGSIREAGGAFGKREAAEEERYFR [Shortened substance (8-35) amino acid Ala substituted (27)] was 89.5%; that for VDRGAGSIREAGGAFAKREQAEEERYFR [Shortened substance (8-35) amino acid Ala substituted (23)] was 102%. ADRGAGSIREAGGAFGKREQAEEERYFR [Shortened substance (8-35) amino acid Ala substituted (8)] had a Binding (%) of 101%.

VDRGAGSIREAGGAFGKREQAEEEAYFR [Shortened substance (8-35) amino acid Ala substituted (32)] showed a Binding (%) of 426%. On to VARGAGSIREAGGAFGKREQAEEERYFR [Shortened substance (8-35) amino acid Ala substituted (9)], for which the Binding (%) amounted to 91.6%.

For the molecule VDRGAGAIREAGGAFGKREQAEEERYFR [Shortened substance (8-35) amino acid Ala substituted (14)], the Binding (%) turned out to be 98.8%. With VDRGAGSIREAGGAFGKRAQAEEERYFR [Shortened substance (8-35) amino acid Ala substituted (26)] the figure was 94.1%; with VDRGAGSIREAGGAFGKREQAEEERAFR [Shortened substance (8-35) amino acid Ala substituted (33)], 146%. The value for VDRGAGSIREAAGAFGKREQAEEERYFR [Shortened substance (8-35) amino acid Ala substituted (19)] was 89.6%. With VDRGAASIREAGGAFGKREQAEEERYFR [Shortened substance (8-35) amino acid Ala substituted (13)] the figure was 98.5%.

VDRGAGSIREAGGAFGKREQAEEERYAR [Shortened substance (8-35) amino acid Ala substituted (34)] displayed a Binding (%) of 92.1%.

VDRGAGSIRAAGGAFGKREQAEEERYFR [Shortened substance (8-35) amino acid Ala substituted (17)] yielded a Binding (%) of 169%. Regarding VDRGAGSIREAGGAFGAREQAEEERYFR [Shortened substance (8-35) amino acid Ala substituted (24)], the Binding (%) is 100%.

The molecule VDRGAGSIREAGGAFGKREQAEEARYFR [Shortened substance (8-35) amino acid Ala substituted (31)] showed a Binding (%) of 158%. The value for VDRAAGSIREAGGAFGKREQAEEERYFR [Shortened substance (8-35) amino acid Ala substituted (11)] was 100%; that for VDRGAGSAREAGGAFGKREQAEEERYFR [Shortened substance (8-35) amino acid Ala substituted (15)] was 99.3%. With VDRGAGSIREAGGAFGKREQAAEERYFR [Shortened substance (8-35) amino acid Ala substituted (29)] the figure was 96.7%; with VDRGAGSIREAGAAFGKREQAEEERYFR [Shortened substance (8-35) amino acid Ala substituted (20)], 68%.
